The source of these data is article doi:10.1101/2021.11.05.467472 (bioRxiv, 2021).

Numbering of substitutions follows the chain as printed. In names and notes the source's numbering stands.

T1: CbbS (Rubisco small subunit) (H. neapolitanus, UniProt P45686 1-110)
T1 sequence: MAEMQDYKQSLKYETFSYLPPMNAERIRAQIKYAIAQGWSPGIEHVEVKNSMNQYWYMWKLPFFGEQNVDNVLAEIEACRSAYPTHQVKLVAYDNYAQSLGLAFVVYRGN

B1: NTD_(1-50) peptide (CsoSCA residue 1-50) (peptide)
peptide: MNTRNTRSKQRAPFGVSSSVKPRLDLIEQAPNPAYDRHPACITLPERTCR
B2: NTD_(1-53)-sfGFP R23A (domain or fragment)
chain: MNTRNTRSKQRAPFGVSSSVKPALDLIEQAPNPAYDRHPACITLPERTCRHPL
B3: Rubisco CbbL D99A (complex)
chain 1: MAVKKYSAGVKEYRQTYWMPEYTPLDSDILACFKITPQPGVDREEAAAAVAAESSTGTWTTVWTDLLTDMDYYKGRAYRIEDVPGDDAAFYAFIAYPIALFEEGSVVNVFTSLVGNVFGFKAVRGLRLEDVRFPLAYVKTCGGPPHGIQVERDKMNKYGRPLLGCTIKPKLGLSAKNYGRAVYECLRGGLDFTKDDENINSQPFMRWRDRFLFVQDATETAEAQTGERKGHYLNVTAPTPEEMYKRAEFAKEIGAPIIMHDYITGGFTANTGLAKWCQDNGVLLHIHRAMHAVIDRNPNHGIHFRVLTKILRLSGGDHLHTGTVVGKLEGDRASTLGWIDLLRESFIPEDRSRGIFFDQDWGSMPGVFAVASGGIHVWHMPALVNIFGDDSVLQFGGGTLGHPWGNAAGAAANRVALEACVEARNQGRDIEKEGKEILTAAAQHSPELKIAMETWKEIKFEFDTVDKLDTQNR
chain 2: T1 sequence
B4: NTD_(1-53)-sfGFP-His (domain or fragment)
chain: B2 chain with A23R
B5: Rubisco CbbL Y72A (complex)
chain 1: B3 chain 1 with Y72A, A99D
chain 2: T1 sequence
B6: CsoSCA-MBP (enzyme)
chain: MNTRNTRSKQRAPFGVSSSVKPRLDLIEQAPNPAYDRHPACITLPERTCRHPLTDLEANEQLGRCEDSVKNRFDRVIPFLQVVAGIPLGLDYVTRVQELAQSSLGHTLPEELLKDNWISGHNLKGIFGYATAKALTAATEQFSRKIMSEKDDSASAIGFFLDCGFHAVDISPCADGRLKGLLPYILRLPLTAFTYRKAYAGSMFDIEDDLAQWEKNELRRYREGVPNTADQPTRYLKIAVYHFSTSDPTHSGCAAHGSNDRAALEAALTQLMKFREAVENAHCCGASIDILLIGVDTDTDAIRVHIPDSKGFLNPYRYVDNTVTYAQTLHLAPDEARVIIHEAILNANRSDGWAKGNGVASEGMRRFIGQLLINNLSQIDYVVNRHGGRYPPNDIGHAERYISVGDGFDEVQIRNLAYYAHLDTVEENAIDVDVGIKIFTKLNLSRGLPIPIAIHYRYDPNVPGSRERTVVKARRIYNAIKERFSSLDEQNLLQFRLSVQAQDIGSPIEEVASA
B7: CbbL (Rubisco large subunit) (natural protein)
chain: B3 chain 1 with A99D

Data set [1] addresses T2, Rubisco-strep (H. neapolitanus CbbL8S8) (H. neapolitanus, UniProt O85040 1-473; P45686 1-110). Briefly: cryo-EM structure.
Data set [2] addresses T1, CbbS (Rubisco small subunit). Briefly: cryo-EM structure.
The target of data set [3] is T2, Rubisco-strep (H. neapolitanus CbbL8S8). Put plainly: BLI.
In data set [4] the target is B4. Put plainly: BLI.
Data set [5] addresses T2, Rubisco-strep (H. neapolitanus CbbL8S8). Put plainly: SEC.
In data set [6] the target is biotinylated Rubisco (H. neapolitanus, UniProt O85040 1-473; P45686 1-110, biotin (subunit and site not stated)). Put plainly: BLI.
Data set [7] concerns the molecule itself. Put plainly: cryo-EM structure.

Turning to B1, the “stoichiometry N” value in data set [1] was found to be 8. The binding result in data set [2] is listed as “binds”. Take B2: the binding result in data set [3] is reported as “binds”. Turning to B3, the “fold increase in KD against wild type” value in data set [4] was 10 fold. Take B4: the binding result in data set [5] is on record as “binds”.

On to B5, for which, in data set [4], the “fold increase in KD against wild type” value was 10 fold.

In turn, B6 yielded a Kd in data set [6] of 1.2 ± 0.1 nM.

In the case of B7, the binding result in data set [7] is listed as “binds”.
